Measured values as given in patent publication US20250277199, “NOVEL CRISPR-CAS NUCLEASES FROM METAGENOMES” (Brain Biotech AG, published 2025).

Target: T1, BMC07 (uncultured bacterium (metagenome))
T1 chain: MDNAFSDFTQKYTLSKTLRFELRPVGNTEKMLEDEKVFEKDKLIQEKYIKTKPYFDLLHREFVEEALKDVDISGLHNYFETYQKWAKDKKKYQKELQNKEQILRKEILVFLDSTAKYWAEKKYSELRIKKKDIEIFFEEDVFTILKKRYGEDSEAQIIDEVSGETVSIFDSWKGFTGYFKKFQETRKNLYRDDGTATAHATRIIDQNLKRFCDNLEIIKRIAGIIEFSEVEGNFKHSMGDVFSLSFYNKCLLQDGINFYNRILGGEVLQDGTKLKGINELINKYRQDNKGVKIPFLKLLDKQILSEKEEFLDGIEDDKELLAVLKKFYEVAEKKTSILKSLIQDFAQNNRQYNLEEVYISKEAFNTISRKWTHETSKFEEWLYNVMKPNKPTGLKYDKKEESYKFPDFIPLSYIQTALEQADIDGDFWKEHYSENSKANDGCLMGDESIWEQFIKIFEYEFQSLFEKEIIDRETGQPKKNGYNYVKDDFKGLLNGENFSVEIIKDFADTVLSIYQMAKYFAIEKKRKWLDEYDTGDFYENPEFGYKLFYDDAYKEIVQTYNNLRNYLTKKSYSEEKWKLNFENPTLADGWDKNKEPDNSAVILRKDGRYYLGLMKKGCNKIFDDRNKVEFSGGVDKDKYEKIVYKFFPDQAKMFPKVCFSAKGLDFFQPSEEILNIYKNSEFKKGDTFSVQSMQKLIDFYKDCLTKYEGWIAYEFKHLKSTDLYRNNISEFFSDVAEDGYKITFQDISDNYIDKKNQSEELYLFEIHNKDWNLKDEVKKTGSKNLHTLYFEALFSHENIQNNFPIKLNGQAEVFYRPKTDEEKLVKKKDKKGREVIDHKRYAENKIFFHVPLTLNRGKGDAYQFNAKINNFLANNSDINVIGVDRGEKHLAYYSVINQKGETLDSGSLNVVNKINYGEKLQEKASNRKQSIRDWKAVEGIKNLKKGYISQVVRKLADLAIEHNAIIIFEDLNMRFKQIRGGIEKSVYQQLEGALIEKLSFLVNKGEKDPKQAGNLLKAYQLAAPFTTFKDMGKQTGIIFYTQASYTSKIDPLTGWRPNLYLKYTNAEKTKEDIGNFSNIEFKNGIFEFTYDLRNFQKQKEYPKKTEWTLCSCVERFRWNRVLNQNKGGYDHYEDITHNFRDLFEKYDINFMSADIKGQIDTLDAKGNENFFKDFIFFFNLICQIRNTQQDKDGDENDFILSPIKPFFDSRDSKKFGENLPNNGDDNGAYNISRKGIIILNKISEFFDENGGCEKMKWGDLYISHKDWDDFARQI
Assay: cell_activity; PAM not stated; E. coli depletion, 30 C
Outline: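 E. coli carrying arabinose-induced (0.2%) BMC nuclease, grown at 30° C., made electrocompetent and electroporated with 50-100 ng plasmid carrying gRNA against malQ. Transformants plated on selective M9-glucose agar with kanamycin/ampicillin (± nourseothricin), and growth scored after 48 h at 30° C.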

B1: malQ gRNA (BMC stem-loop + 24 nt spacer) ; malQ protospacer (ssRNA ; dsDNA)
RNA: GAUUUCUACUAUUGUAGAUGUGGCGGUACGUUGAUGCAUCGCG
DNA 1: GTGGCGGTACGTTGATGCATCGCG
DNA 2: CGCGATGCATCAACGTACCGCCAC
activity: > 99.9 % colony reduction
